T1: MRIP^724-878 (Homo sapiens, UniProt Q6WCQ1)
T1 construct: MRIP^724-878 (residues 724–878; CC2-CC4); made in house; host or cells: Escherichia coli BL21 (DE3)
T1 sequence (Q6WCQ1 725-879): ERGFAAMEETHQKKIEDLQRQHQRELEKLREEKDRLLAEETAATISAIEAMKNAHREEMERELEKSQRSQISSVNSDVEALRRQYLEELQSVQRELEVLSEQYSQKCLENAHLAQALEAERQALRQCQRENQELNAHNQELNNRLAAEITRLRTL


What was measured:
MRIP^724-878 [1] = molecular target: T1, MRIP^724-878; assay: AUC interaction of MYPT1 peptides (CC, LR and LR mutants) with MRIP^724-878; assay type: binding; conditions: equimolar mixture (CC: 50 μM each) and dilutions, pH 7.4, 100 mM KCl, 20°C
Description: (§1) To determine the minimal MRIP-binding region of MYPT1, AUC was employed to examine interactions between sub-domains of CCLR, CC (residues 924–990) and LR (residues 991–1030) with MRIP^724-878 (Fig 4A). CC is the putative coiled coil domain and LR contains 16 upstream amino acid residues (residues 991–1006) in addition to the leucine repeat (residues 1007–1028). MRIP^724-878 was chosen because of its good fit to a single component, single-species model. […] Global fitting of the mixture to a two-component model produced a good fit and the RMSD of the fit was 0.010 (Fig 4B; Fitting of CC).
The coiled coil is a common protein-protein interaction domain. The MRIP peptides in this study have putative coiled coil domains and are α-helical. In contrast, the MYPT1 peptide, LR is not α-helical even though it contains the leucine repeat. Thus, we hypothesized that charged residues of MYPT1 might participate in the MYPT1/MRIP interaction with its leucine residues. We generated various LR peptides representing mutations in charged residues (Fig 6A) and examined their bindings to MRIP^724-878 (Fig 6B).
Fig 6 Glutamic acids within LR enhance the MRIP-binding affinity. (A) Amino acid sequences of the wild-type LR (WT-LR) and mutant LR peptides. Charged residues are in bold, the leucine repeat is in Italic, and substitution mutations are underlined. (B) Time derivative s*lg(s*) graphs: Line, MRIP^724-878 alone (50 μM); filled-in circles, original mixture of MRIP^724-878/each mutant LR peptide (50 μM each except for R992D/R993D and E996K whose mixtures consisted of excess amount of the mutant LR peptides); open circles, a three-fold dilution of the original mixture. The molar mass of the complex differs slightly from that of MRIP^724-878 dimer (37.9 kDa vs 37.4 kDa), and thus the shift in the main peak position is not easily discernable in many cases.
The cDNA fragment encoding MRIP peptides were amplified using a full-length MRIP cDNA as a template with the following primer pairs: MRIP^545-878, 5’-[…]/5’[…]; MRIP^724-878, 5’-[…]/5’-[…]; MRIP^724-837, 5’-[…]/5’-[…]. The PCR products were ligated into pCR2.1-TOPO using the TA cloning system and sequenced in both directions. The IMPACT™ (Intein Mediated Purification with an Affinity Chitin-binding Tag) Kit (New England BioLabs) was used to express peptides in bacteria to obtain tag-free peptides. The PCR amplicon encoding MRIP peptides were fused in frame to the chitin binding domain of pTYB12 vector utilizing the NdeI/EcoRI restriction sites. The expression vectors for the MYPT1 peptides, CCLR (residues 924–1030), CC (residues 924–990), and LR (residues 991–1030) were constructed as described: In the reference literature, CCLR and LR were named CCLZ and LZ, respectively. Recombinant peptides were produced in Escherichia coli strain BL21 (DE3) and purified using chitin beads according to the manufacturer's protocol. For further purification, the eluent from chitin beads was loaded on a Vydac C8 reversed phase column and subjected to HPLC using an acetonitrile gradient. Purity and identity of the peptides were confirmed by polyacrylamide gel electrophoresis (PAGE) and mass spectrometry. For the mutagenesis study of LR, the wild-type and mutant LR peptides were synthesized, purified by reverse-phase HPLC, and lyophilized to dryness at the peptide core in Boston Biomedical Research Institute.
Sedimentation velocity experiments were done on a Beckman Instruments Optima XL-I analytical ultracentrifuge equipped with Rayleigh optics. The cells were equipped with sapphire windows and 12 mm charcoal-filled Epon centerpieces. Apparent sedimentation coefficient distribution patterns were computed by the time derivative method. Peptides were dialyzed against 50 mM potassium phosphate buffer (pH 7.4) containing 100 mM KCl, and 1 mM DTT at 4°C overnight and then subjected to AUC at 50,000 rpm and 20°C. […]

MRIP^724-878 [2] = molecular target: T1, MRIP^724-878; assay: SPR, MYPT1 peptides as analytes over immobilized MRIP^724-878; assay type: binding; conditions: 25°C, pH 7.4, CCLR 167–1 μM, CC 318–10 μM, LR 569–5 μM
Protocol: To corroborate the results from AUC studies, SPR was employed. […] Equilibrium K d values were obtained by nonlinear curve fitting of reference-corrected curves using the steady-state affinity fitting model in BIAevaluation version 4–1.
Analytes CCLR, CC, LR: Interactions between analytes, CCLR (167–1 μM), CC (318–10 μM), and LR (569–5 μM) with immobilized ligand, MRIP^724-878 (1800 RU) after correction for nonspecific binding using G-actin (2230 RU). Shown is a representative out of 9 experiments for CCLR and 8 for LR in each, duplicates or triplicates. Insets show fittings of steady-state affinity. Ligand LR: Interaction of analyte, MRIP^724-878 (85.6–0.7 μM) with immobilized ligand, LR (244.8 RU) after correction for nonspecific binding using a nebulin-derived peptide (600 RU). Shown is a representative out of 6 experiments.
Binding analyses of SPR were conducted on a Biacore 3000 (GE Healthcare) at 25°C. Sensor chips and reagents for immobilization (1-ethyl-3-(3-dimethylaminopropyl) carbodiimide, N-hydroxyl-succinimide, and ethanolamine) were purchased from GE Healthcare. Peptides were immobilized onto a CM5 sensor chip at 232–5841 resonance units (RU) using amine coupling. Binding studies were done using two-fold serial dilutions of the peptides in 50 mM potassium phosphate buffer (pH 7.4) containing 100 mM KCl. […]

[3] = AUC of MYPT1 peptides alone (concentration dependence, self-association); assay type: physicochemical; conditions: CC alone, 107 μM and 3-, 9-fold dilutions, MRIP^724-878 alone, 50 μM and 3-, pH 7.4, 20°C
Description: as §1
Fig 4 LR contains sufficient residues for the MYPT1/MRIP interaction. […] CC; Concentration-normalized time derivative g(s*) plots of CC, MRIP^724-878, and equimolar mixtures of the two peptides: Black filled-in circles, an original CC alone (107 μM); dark gray filled-in circles, a 3-fold dilution of CC alone; light gray filled-in circles, a 9-fold dilution of CC alone; black filled-in triangles, an original MRIP^724-878 alone (50 μM); dark gray filled-in triangles, a 3-fold dilution of MRIP^724-878 alone; light gray filled-in triangles, a 9-fold dilution of MRIP^724-878 alone; a black line, an original equimolar mixture of MRIP^724-878/CC (50 μM each): a dark gray line, a 3-fold dilution of the mixture; a light gray line, a 9-fold dilution of the mixture. […]

MRIP = test system: MRIP; parameters: method as in PMID 16243315; conditions: double point mutations in CC5; ref [12]; cited from earlier work

| Molecule | binding to MRIP^724-878 (g(s*) curves) (MRIP^724-878 [1]) | complex formation with immobilized MRIP^724-878 (MRIP^724-878 [2]) | concentration dependence of g(s*) curves [3] | oligomerization (MRIP) |
| --- | --- | --- | --- | --- |
| CC: sub-domain of CCLR, residues 924–990; the putative coiled coil domain (protein, UniProt Q6WCQ1 924-990, looked up, fragment) KDELQTALRDKKYASDKYKDIYTELSIAKAKADCDISRLKEQLKAATEALGEKSPDSATVSGYDIMK | no binding | did not | superimposable, indicating concentration-independence |  |
| L905P/I912P: MRIP mutation employed by Mulder et al; double point mutation in CC5 (protein, UniProt Q6WCQ1 2-1025, looked up, variant L905P I912P) Myosin phosphatase …: SAAKENPCRKFQANIFNKSKCQNCFKPRESHLLNDEDLTQAKPIYGGWLLLAPDGTDFDNPVHRSRKWQRRFFILYEHGLLRYALDEMPTTLPQGTINMNQCTDVVDGEGRTGQKFSLCILTPEKEHFIRAETKEIVSGWLEMLMVYPRTNKQNQKKKRKVEPPTPQEPGPAKVAVTSSSSSSSSSSSIPSAEKVPTTKSTLWQEEMRTKDQPDGSSLSPAQSPSQSQPPAASSLREPGLESKEEESAMSSDRMDCGRKVRVESGYFSLEKTKQDLKAEEQQLPPPLSPPSPSTPNHRRSQVIEKFEALDIEKAEHMETNAVGPSPSSDTRQGRSEKRAFPRKRDFTNEAPPAPLPDASASPLSPHRRAKSLDRRSTEPSVTPDLLNFKKGWLTKQYEDGQWKKHWFVLADQSLRYYRDSVAEEAADLDGEIDLSACYDVTEYPVQRNYGFQIHTKEGEFTLSAMTSGIRRNWIQTIMKHVHPTTAPDVTSSLPEEKNKSSCSFETCPRPTEKQEAELGEPDPEQKRSRARERRREGRSKTFDWAEFRPIQQALAQERVGGVGPADTHEPLRPEAEPGELERERARRREERRKRFGMLDATDGPGTEDAALRMEVDRSPGLPMSDLKTHNVHVEIEQRWHQVETTPLREEKQVPIAPVHLSSEDGGDRLSTHELTSLLEKELEQSQKEASDLLEQNRLLQDQLRVALGREQSAREGYVLQATCERGFAAMEETHQKKIEDLQRQHQRELEKLREEKDRLLAEETAATISAIEAMKNAHREEMERELEKSQRSQISSVNSDVEALRRQYLEELQSVQRELEVLSEQYSQKCLENAHLAQALEAERQALRQCQRENQELNAHNQELNNRLAAEITRLRTLLTGDGGGEATGSPLAQGKDAYELEVLPRVKESEPQYLKQEISSLKDELQTALRDKKYASDKYKDIYTELSIAKAKADCDISRLKEQLKAATEALGEKSPDSATVSGYDIMKSKSNPDFLKKDRSCVTRQLRNIRSKSVIEQVSWDT |  |  |  | little oligomerization |
| I919P/L926P: MRIP mutation employed by Mulder et al; double point mutation in CC5 (protein, UniProt Q6WCQ1 2-1025, looked up, variant I919P L926P) Myosin phosphatase …: SAAKENPCRKFQANIFNKSKCQNCFKPRESHLLNDEDLTQAKPIYGGWLLLAPDGTDFDNPVHRSRKWQRRFFILYEHGLLRYALDEMPTTLPQGTINMNQCTDVVDGEGRTGQKFSLCILTPEKEHFIRAETKEIVSGWLEMLMVYPRTNKQNQKKKRKVEPPTPQEPGPAKVAVTSSSSSSSSSSSIPSAEKVPTTKSTLWQEEMRTKDQPDGSSLSPAQSPSQSQPPAASSLREPGLESKEEESAMSSDRMDCGRKVRVESGYFSLEKTKQDLKAEEQQLPPPLSPPSPSTPNHRRSQVIEKFEALDIEKAEHMETNAVGPSPSSDTRQGRSEKRAFPRKRDFTNEAPPAPLPDASASPLSPHRRAKSLDRRSTEPSVTPDLLNFKKGWLTKQYEDGQWKKHWFVLADQSLRYYRDSVAEEAADLDGEIDLSACYDVTEYPVQRNYGFQIHTKEGEFTLSAMTSGIRRNWIQTIMKHVHPTTAPDVTSSLPEEKNKSSCSFETCPRPTEKQEAELGEPDPEQKRSRARERRREGRSKTFDWAEFRPIQQALAQERVGGVGPADTHEPLRPEAEPGELERERARRREERRKRFGMLDATDGPGTEDAALRMEVDRSPGLPMSDLKTHNVHVEIEQRWHQVETTPLREEKQVPIAPVHLSSEDGGDRLSTHELTSLLEKELEQSQKEASDLLEQNRLLQDQLRVALGREQSAREGYVLQATCERGFAAMEETHQKKIEDLQRQHQRELEKLREEKDRLLAEETAATISAIEAMKNAHREEMERELEKSQRSQISSVNSDVEALRRQYLEELQSVQRELEVLSEQYSQKCLENAHLAQALEAERQALRQCQRENQELNAHNQELNNRLAAEITRLRTLLTGDGGGEATGSPLAQGKDAYELEVLLRVKESEIQYLKQEPSSLKDEPQTALRDKKYASDKYKDIYTELSIAKAKADCDISRLKEQLKAATEALGEKSPDSATVSGYDIMKSKSNPDFLKKDRSCVTRQLRNIRSKSVIEQVSWDT |  |  |  | little oligomerization |
